How the values were obtained:
[1] = tested on: THP-1 cells; assay: Differentiation (CD11B and CD14 staining), THP-1; assay type: cell-based, human; conditions: 96-hours post anti-EGFL7 treatment
Experimental: FIG. 24A-24G. EGFL7 prevents activation of NOTCH signaling in AML cells. (FIG. 24A) Overview of experiments using DLL4-FC and IgG-FC control coated plates to induce NOTCH activation. (FIG. 24B) THP-1 cells were pre-treated with 10 μM γ-secretase inhibitor (AVA), 100 μg/ml anti-EGFL7 antibody or 0.25 μM rEGFL7 for 30 min, then transferred to IgG-Fc or DLL4-Fc coated plates. After 4 h of incubation total RNA from THP-1 cells was extracted for qRT-PCR analysis of HES1 with β-ACTIN as internal control. ^###P<0.001 DLL4-FC vs IgG-FC; ***P<0.001 DLL4+AVA, DLL4+rEGFL7, and DLL4+anti-EGFL7 vs DLL4-FC. […] THP-1 cells were treated with the indicated concentration of anti-EGFL7 (@E7) then assessed for apoptosis using (FIG. 24D) AnnexinV+ staining and FACS; *P<0.05 (FIG. 24E) Immuno-blotting for PARP1 and Casp3 cleavage. (FIG. 24F) Cell differentiation was assessed by CD11B and CD14 staining 96-hours post anti-EGFL7 treatments; *P<0.05. (FIG. 24G) To determine whether activation of NOTCH by DLL4-Fc could be accentuated by anti-EGFL7 treatment, THP-1 cells were first treated with anti-EGFL7 (100 μg/ml) and then cultured on DLL4-FC or IgG-Fc coated plates and then assessed for apoptosis using AnnexinV+ staining and FACS. *P<0.05 DLL4-Fc and anti-EGFL7; vs DLL4-FC+anti-EGFL7. […]

[2] = tested on: NICD; assay: NICD immunoblot in primary AML blasts; assay type: cell-based, human; conditions: 100 μg/ml, 2 hrs, n=3, vs IgG
Experimental: FIG. 23A-23E. EGFL7 suppresses NOTCH signaling in human AML patient blasts. (FIG. 23A) Primary blasts from AML patients (n=3) were cultured in SFEM medium with 2% BSA in the presence or absence (Unstim) of 0.25 μM rEGFL7 for 4 h. Total proteins were extracted for immunoblotting of NICD (cleaved NOTCH1) with GAPDH as loading control. (FIG. 23B) Total RNA was extracted for quantitative real time (qRT-PCR) analysis of HES1 mRNA with β-ACTIN as internal control. *p<0.05 vs un-stimulated control (Unstim). (FIG. 23C) qRT-PCR for NOTCH2 mRNA at 4 h and 24 h after stimulation of primary AML blasts with 0.25 uM rEGFL7 or unstim controls. (FIG. 23D) Primary blasts from AML patients (n=3) were cultured in SFEM medium in the absence or presence of 100 μg/ml of normal IgG or anti-human EGFL7 antibody for 2 h. Total protein was extracted for immunoblotting of NICD with GAPDH as loading control. […] Total RNA was extracted for quantitative real time RT-PCR analysis of HES1 mRNA with β-ACTIN as internal control. *p<0.05, ***p<0.001 vs IgG.
Cells were lysed in 100 μl of Pierce RIPA buffer (Cat. #8990, Thermo Scientific) supplemented with protease and phosphatase inhibitors (Roche) on ice for 20 min. […] Immunoreactive bands were detected using ECL Select Western Blotting Detection Reagent (GE Healthcare). […]

B1: Parsatuzumab: Anti-human EGFL7 therapeutic antibody (Parsatuzumab) obtained from Creative Biolabs; blocking monoclonal antibody (antibody, chains of the INN, looked up, V domains shown)
VH: EVQLVESGGGLVQPGGSLRLSCAASGYTFIDYYMNWVRQAPGKGLEWVGDINLDNSGTHYNQKFKGRFTISRDKSKNTAYLQMNSLRAEDTAVYYCAREGVYHDYDDYAMDYWGQGTLVTVSS
VL: DIQMTQSPSSLSASVGDRVTITCRTSQSLVHINAITYLHWYQQKPGKAPKLLIYRVSNRFSGVPSRFSGSGSGTDFTLTISSLQPEDFATYYCGQSTHVPLTFGQGTKVEIK
[1]
  CD11B and CD14 expression: increases were found in both these markers
[2]
  NICD levels: significant increases in NICD levels
